Paper PMC3475689, “Leishmania donovani Argininosuccinate Synthase Is an Active Enzyme Associated with Parasite Pathogenesis” (PLoS Neglected Tropical Diseases, 2012)

T1: LdPEX5, PTS1 receptor protein peroxin 5 of Leishmania donovani, recombinant (Leishmania donovani, UniProt A0A3S7X906 1-625)
T1 construct: Peroxin 5 (LdPEX5), the PTS1 receptor of Leishmania donovani; construct not described here; also called receptor peroxin 5; glycosomal PTS1 targeting receptor protein
T1 sequence (looked up): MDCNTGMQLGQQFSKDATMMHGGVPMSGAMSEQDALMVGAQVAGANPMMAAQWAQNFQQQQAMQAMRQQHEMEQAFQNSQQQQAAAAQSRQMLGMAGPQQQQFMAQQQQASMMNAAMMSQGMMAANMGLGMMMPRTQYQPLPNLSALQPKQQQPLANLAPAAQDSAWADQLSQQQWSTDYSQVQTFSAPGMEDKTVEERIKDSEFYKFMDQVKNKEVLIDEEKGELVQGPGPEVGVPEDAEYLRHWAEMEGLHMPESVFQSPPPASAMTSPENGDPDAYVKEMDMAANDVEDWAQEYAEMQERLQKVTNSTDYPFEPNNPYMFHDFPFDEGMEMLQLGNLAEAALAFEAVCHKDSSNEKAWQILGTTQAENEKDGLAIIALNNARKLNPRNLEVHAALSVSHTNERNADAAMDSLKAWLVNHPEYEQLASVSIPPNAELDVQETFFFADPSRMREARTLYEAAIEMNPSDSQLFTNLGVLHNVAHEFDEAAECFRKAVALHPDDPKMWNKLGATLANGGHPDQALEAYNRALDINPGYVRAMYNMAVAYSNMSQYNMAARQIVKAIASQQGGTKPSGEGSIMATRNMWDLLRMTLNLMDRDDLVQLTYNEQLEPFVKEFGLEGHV


Legend:
LdASS (V5His-LdASS^WT) = molecular target: T2, LdASS (V5His-LdASS^WT) (Leishmania donovani, UniProt H9BG20); test: malachite green Pi release, pyrophosphatase-coupled; type: biochemical; settings: read-out: % inhibition at 1 mM
T2 construct: full length (419 residues predicted, 46 kDa), N-terminal V5 and His6 tags kept; overexpressed in L. donovani amastigotes, Ni-NTA pull-down, assayed on beads; tetramer inferred from other ASS; CBZ34226.1 (BPK282A1) stated identical

[1] = molecular target: T1, LdPEX5, PTS1 receptor protein peroxin 5 …; test: ELISA; plates coated with 100 µL of 10 µg/mL LdIMPDH or LdASS variant in PBS, 4°C, 16 h; blocked with 2% BSA; purified LdPEX5 at 0.01-400 nM; bound LdPEX5 detected with anti-LdPEX5 polyclonal antisera; apparent Kd; settings: both partners purified
[2] = molecular target: V5His-LdASS^G128S, recombinant Leishmania donovani argininosuccinate synthase G128S with N-terminal V5 epitope and hexahistidine tags (Leishmania donovani); test: as above

Row | Molecule | Kd [1] | also measured
1 | CC(N)(CC(=O)O)C(=O)O (racemic) [MDLA, methyl-D-L-Aspartic acid] | – | inhibition at 1000 µM (LdASS (V5His-LdASS^WT)): ~60%
2 | LdIMPDH, glycosomal PTS1 protein inosine monophosphate dehydrogenase of Leishmania donovani, recombinant (enzyme, UniProt P21620 1-514, looked up, Inosine monophosphate dehydrogenase (LdIMPDH) of Leishmania donovani, with the C-terminal tripeptide PTS1 signal Ala-Lys-Met; construct not described here) MATNNANYRIKTIKDGCTAEELFRGDGLTYNDFIILPGFIDFGAADVNISGQFTKRIRLHIPIVSSPMDTITENEMAKTMALMGGVGVLHNNCTVERQVEMVKSVKAYRNGFISKPKSVPPNTPISNIIRIKEEKGISGILVTENGDPHGKLLGIVCTKDIDYVKNKDTPVSAVMTRREKMTVERAPIQLEEAMDVLNRSRYGYLPIVNENDEVVNLCSRRDAVRARDYPHSTLDKSGRLICAAATSTRPEDKRRVAALADVGVDVLVLDSSQGNTIYQIAFIKWVKSTYPHLEVVAGNVVTQDQAKNLIDAGADGIRIGMGSGSICITQEVLACGRPQGTAVYKVAQYCASRGVPCTADGGLRQVGDICKALAIGANCAMLGGMLSGTTETPGEYFFKGGVRLKVYRGMGSLEAMSQGKESGKRYLSENEAVQVAQGVSGNVVDKGSAAKLIAYVSKGLQQSAQDIGEISFDAIREKMYAGQVLFSRRSPTAQGEGGVHSLHSYEKKLFAAKM | ~5 nM | –
3 | V5His-LdASS^WT, recombinant Leishmania donovani argininosuccinate synthase with N-terminal V5 epitope and hexahistidine tags (enzyme, UniProt H9BG20 1-418, looked up, Argininosuccinate synthase (LdASS) of Leishmania donovani strain Ld1S2D; predicted protein identical to L. infantum LinJ.23.0300 and L. donovani BPK282A1 CBZ34226.1; C-terminal Ser-Ser-Leu (PTS1) left free; Made from the pCRT7 plasmid with primers F3/R3 and ligated into pEXP-5-NT/TOPO; also called rLdASS WT, N-terminal tagged; pEXP5-V5HisLdASS^WT; source: E. coli BL21 (DE3) pLysS, purified …) MPATATEVVCGKKPRVVLAYSGGLDTSVIIPWLKENYDYEVIACCANVGQGAGEIDGLEEKAKKSGASKLYLLDLREEYVTDYIFPTLKAGATYEGKYMLGTSHARPLIAKHLVEVAHKEGAVAICHGATGKGNDQVRFELAVMALDPSLKCVAPWREWNIKSREDAIDYAEAHGVPVPCTKSDLYSRDRNLWHISHEGMDLEDPANEPAYARLLRLCNTVEKAPDEAEYVAVQFEKGIPVAVNGRKMSSVELVEELNALGGKHAIGIEDIVEDRLVGMKSRGVYETPAGTILYKALDMLESLCLDRDTQSFKRQSAVRFSELVYDGKWFTPLRESMSAMFDQMAETVTGEATLKLYKGNLVPAGAQSPYSLYNKNIASFGDSKHLYNHHDAEGFIRLFGLPLRVRSMMKAKEMPSSL | ~5 nM | –
4 | LdPEX5, PTS1 receptor protein peroxin 5 of Leishmania donovani, recombinant (receptor) MDCNTGMQLGQQFSKDATMMHGGVPMSGAMSEQDALMVGAQVAGANPMMAAQWAQNFQQQQAMQAMRQQHEMEQAFQNSQQQQAAAAQSRQMLGMAGPQQQQFMAQQQQASMMNAAMMSQGMMAANMGLGMMMPRTQYQPLPNLSALQPKQQQPLANLAPAAQDSAWADQLSQQQWSTDYSQVQTFSAPGMEDKTVEERIKDSEFYKFMDQVKNKEVLIDEEKGELVQGPGPEVGVPEDAEYLRHWAEMEGLHMPESVFQSPPPASAMTSPENGDPDAYVKEMDMAANDVEDWAQEYAEMQERLQKVTNSTDYPFEPNNPYMFHDFPFDEGMEMLQLGNLAEAALAFEAVCHKDSSNEKAWQILGTTQAENEKDGLAIIALNNARKLNPRNLEVHAALSVSHTNERNADAAMDSLKAWLVNHPEYEQLASVSIPPNAELDVQETFFFADPSRMREARTLYEAAIEMNPSDSQLFTNLGVLHNVAHEFDEAAECFRKAVALHPDDPKMWNKLGATLANGGHPDQALEAYNRALDINPGYVRAMYNMAVAYSNMSQYNMAARQIVKAIASQQGGTKPSGEGSIMATRNMWDLLRMTLNLMDRDDLVQLTYNEQLEPFVKEFGLEGHV | – | Kd [2]: 5 nM
